These results are taken from patent publication US20170368168A1 (AGENUS, published 2017).

For assay [1], the target named is T1, human TIM-3 expressed on cells (human, UniProt Q8TDQ0 22-301).
T1 construct: also called T cell immunoglobulin and mucin domain-3; HAVCR2
T1 sequence: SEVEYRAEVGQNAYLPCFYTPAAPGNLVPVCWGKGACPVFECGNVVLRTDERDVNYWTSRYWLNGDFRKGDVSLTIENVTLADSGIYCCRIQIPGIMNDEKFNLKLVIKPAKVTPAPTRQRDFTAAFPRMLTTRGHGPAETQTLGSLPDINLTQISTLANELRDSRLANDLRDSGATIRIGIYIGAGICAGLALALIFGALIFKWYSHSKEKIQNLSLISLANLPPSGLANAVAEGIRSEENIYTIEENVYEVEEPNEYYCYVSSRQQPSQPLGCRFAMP
Nature of the assay: flow cytometry, 1624-5 cells expressing human TIM-3. Background: A flow cytometer gives signals particle by particle.

Assay [2] concerns the target T2, recombinant human TIM-1 His (R&D Systems, Cat#1750-TM) (human, UniProt Q96D42 21-295).
T2 construct: also called rhTIM-1 His
T2 sequence (looked up): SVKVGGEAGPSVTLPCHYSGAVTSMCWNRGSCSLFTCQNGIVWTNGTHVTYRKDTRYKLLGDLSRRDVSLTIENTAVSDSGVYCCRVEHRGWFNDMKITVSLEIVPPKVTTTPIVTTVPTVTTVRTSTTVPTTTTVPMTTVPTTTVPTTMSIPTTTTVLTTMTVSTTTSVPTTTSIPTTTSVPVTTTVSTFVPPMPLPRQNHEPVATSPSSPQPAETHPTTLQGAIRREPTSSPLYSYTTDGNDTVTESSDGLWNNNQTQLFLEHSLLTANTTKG
Nature of the assay: Luminex suspension array, antigen coupled to beads.

Assay [3] deals with T3, recombinant human TIM-4 His (R&D, Cat#2929-TM) (human, UniProt Q96H15 25-315).
T3 construct: also called rhTIM-4 His
T3 sequence (looked up): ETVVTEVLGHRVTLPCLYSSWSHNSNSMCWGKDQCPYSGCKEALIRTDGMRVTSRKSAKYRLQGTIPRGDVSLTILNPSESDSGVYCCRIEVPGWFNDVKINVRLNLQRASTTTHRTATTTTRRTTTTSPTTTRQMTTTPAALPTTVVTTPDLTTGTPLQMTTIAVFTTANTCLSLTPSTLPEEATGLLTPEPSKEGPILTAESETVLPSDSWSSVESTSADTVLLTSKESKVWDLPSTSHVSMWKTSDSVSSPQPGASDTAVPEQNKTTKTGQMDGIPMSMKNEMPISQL
Nature of the assay: Luminex suspension array, antigen coupled to beads.

In assay [4] the target is T4, recombinant human TIM-3 Fc (R&D Systems, Cat#2365-TM) (human, UniProt P01857-1 100-330 = IgG part).
T4 construct: also called rhTIM-3 Fc; human TIM-3/Fc chimera
Nature of the assay: Luminex suspension array, antigen coupled to beads.

Assay [5] deals with T1, human TIM-3 expressed on cells. Nature of the assay: flow cytometry, Jurkat cells ectopically expressing human TIM-3; pab2188w is the weaker comparator.
Assay [6] concerns the target T5, recombinant human DR3 Fc (R&D Systems, #943-D3) (human, UniProt Q93038 25-201).
T5 construct: also called rhDR3 Fc; not shown: Fc part
T5 sequence (looked up): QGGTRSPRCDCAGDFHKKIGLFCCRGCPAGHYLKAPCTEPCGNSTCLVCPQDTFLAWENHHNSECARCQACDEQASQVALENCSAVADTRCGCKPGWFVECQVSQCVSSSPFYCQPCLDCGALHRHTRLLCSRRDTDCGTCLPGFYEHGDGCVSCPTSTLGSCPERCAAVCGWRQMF
Kind of assay: Luminex suspension array, antigen coupled to beads.

The target in assay [7] is T6, recombinant mouse TIM-3 Fc (R&D Systems, #1529-TM) (mouse, UniProt Q8VIM0 20-191).
T6 construct: also called rmTIM-3 Fc; not shown: Fc part
T6 sequence (looked up): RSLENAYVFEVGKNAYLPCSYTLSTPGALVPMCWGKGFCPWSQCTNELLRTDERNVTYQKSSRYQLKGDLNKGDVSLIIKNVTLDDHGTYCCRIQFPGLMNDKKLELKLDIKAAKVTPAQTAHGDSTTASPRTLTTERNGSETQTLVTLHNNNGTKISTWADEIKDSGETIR
Kind of assay: Luminex suspension array, antigen coupled to beads.

Assay [8] addresses T7, recombinant human OX40 His (Sino Biological, #10481-H08H) (human, UniProt P43489 29-216).
T7 construct: also called rhOX40 His
T7 sequence (looked up): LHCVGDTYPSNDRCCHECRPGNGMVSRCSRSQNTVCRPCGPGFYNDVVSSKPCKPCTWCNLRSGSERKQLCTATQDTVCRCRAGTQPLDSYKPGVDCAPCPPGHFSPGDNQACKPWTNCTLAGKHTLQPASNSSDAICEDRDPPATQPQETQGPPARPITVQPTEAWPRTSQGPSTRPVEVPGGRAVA
Nature of the assay: Luminex suspension array, antigen coupled to beads.

The target of assay [9] is T8, recombinant human GITR Fc (R&D Systems, #689-GR) (human, UniProt Q9Y5U5 26-161).
T8 construct: also called rhGITR Fc; not shown: Fc part
T8 sequence (looked up): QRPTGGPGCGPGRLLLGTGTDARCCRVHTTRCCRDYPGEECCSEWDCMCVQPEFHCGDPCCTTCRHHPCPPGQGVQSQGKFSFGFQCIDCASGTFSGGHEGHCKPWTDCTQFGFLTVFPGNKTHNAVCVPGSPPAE
Nature of the assay: Luminex suspension array, antigen coupled to beads.

Assay [10] concerns the target T9, recombinant human CD137 Fc (in house produced material) (human, UniProt Q07011 24-186).
T9 construct: also called rhCD137 Fc; not shown: Fc part
Kind of assay: Luminex suspension array, antigen coupled to beads.

B1: pab2088 (IgG1) (antibody, V domains shown)
VH: not shown
VL: DIQMTQSPSSLSASVGDRVTITCRASQGISNYLAWYQQKPGKVPKLLIYAASTLQSGVPSRFSGSGSGTDFTLTISRLEPEDFAVYYCQQYGSSPLTFGGGTKVEIK
As to B1, the binding result was “binds” in assay [1]; “no binding (tested: 10 ng/ml, 100 ng/ml, and 1000 ng/ml)” in [2]; “no binding (tested: 10 ng/ml, 100 ng/ml, and 1000 ng/ml)” in assay [3]; “binds” in assay [4].

B2: pab2188w (IgG1 N297A) (antibody, V domains shown)
VH: not shown
VL: EIVLTQSPATLSLSPGERATLSCRASQSVSSYLAWYQQKPGQAPRLLIYDASNRATGIPASFSGSGSGTDFTLTISRLEPEDFAVYYCQQYGSSPLTFGGGTKVEIKR
For B2, the binding result is listed as “binds” in assay [5]; “no binding (tested: 10000 ng/ml to 0.1 ng/ml)” in assay [2]; “no binding (tested: 10000 ng/ml to 0.1 ng/ml)” in assay [6]; “no binding (tested: 10000 ng/ml to 0.1 ng/ml)” in assay [7]; “no binding (tested: 10000 ng/ml to 0.1 ng/ml)” in [8]; “no binding (tested: 10000 ng/ml to 0.1 ng/ml)” in assay [9]. The binding result in assay [3] and in [10] was “no binding (tested: 10000 ng/ml to 0.1 ng/ml)” in each case.
